What was measured:
[1] = target: non-mutated human leptin (human) (UniProt P41159); experiment: receptor-Fc ELISA value divided by anti-leptin antibody ELISA value; sample 8, blood donor serum/plasma
[2] = target: non-mutated human leptin (human) (UniProt P41159); experiment: receptor-Fc ELISA value divided by anti-leptin antibody ELISA value; WHO standard 2 ng/ml
[3] = target: non-mutated human leptin (human) (UniProt P41159); experiment: receptor-Fc ELISA value divided by anti-leptin antibody ELISA value; sample 12, blood donor serum/plasma
[4] = target: non-mutated human leptin (human) (UniProt P41159); experiment: ELISA, plate-bound leptin receptor-Fc; sample 4, purified recombinant leptin
[5] = target: non-mutated human leptin (human) (UniProt P41159); experiment: receptor-Fc ELISA value divided by anti-leptin antibody ELISA value; sample 10, blood donor serum/plasma
[6] = target: non-mutated human leptin (human) (UniProt P41159); experiment: ELISA, plate-bound leptin receptor-Fc; sample 8, blood donor serum/plasma CS-2
[7] = target: non-mutated human leptin (human) (UniProt P41159); experiment: ELISA, plate-bound leptin receptor-Fc; sample 9, blood donor serum/plasma DO-2226
[8] = target: non-mutated human leptin (human) (UniProt P41159); experiment: receptor-Fc ELISA value divided by anti-leptin antibody ELISA value; sample 9, blood donor serum/plasma
[9] = target: non-mutated human leptin (human) (UniProt P41159); experiment: receptor-Fc ELISA value divided by anti-leptin antibody ELISA value; sample 11, blood donor serum/plasma
[10] = target: non-mutated human leptin (human) (UniProt P41159); experiment: ELISA, plate-bound leptin receptor-Fc; sample 7, WHO standard NIBSC 97/594, nominal 6 ng/ml
[11] = target: non-mutated human leptin (human) (UniProt P41159); experiment: ELISA, plate-bound leptin receptor-Fc, detection with polyclonal anti-leptin; sample 1, HEK293 supernatant
[12] = target: non-mutated human leptin (human) (UniProt P41159); experiment: ELISA, plate-bound leptin receptor-Fc; sample 6, WHO standard NIBSC 97/594, nominal 2 ng/ml
[13] = target: non-mutated human leptin (human) (UniProt P41159); experiment: ELISA, plate-bound leptin receptor-Fc; sample 11, blood donor serum/plasma IDB-8960
[14] = target: non-mutated human leptin (human) (UniProt P41159); experiment: receptor-Fc ELISA value divided by anti-leptin antibody ELISA value; WHO standard 6 ng/ml
[15] = target: non-mutated human leptin (human) (UniProt P41159); experiment: ELISA, plate-bound leptin receptor-Fc; sample 12, blood donor serum/plasma BB-3935
[16] = target: non-mutated human leptin (human) (UniProt P41159); experiment: ELISA, plate-bound leptin receptor-Fc; sample 10, blood donor serum/plasma IDB-883-
[17] = target: non-mutated human leptin (human) (UniProt P41159); experiment: receptor-Fc ELISA value divided by anti-leptin antibody ELISA value; sample 1, HEK293 supernatant

UniProt P41159, sequence (P41159 22-167, change not shown): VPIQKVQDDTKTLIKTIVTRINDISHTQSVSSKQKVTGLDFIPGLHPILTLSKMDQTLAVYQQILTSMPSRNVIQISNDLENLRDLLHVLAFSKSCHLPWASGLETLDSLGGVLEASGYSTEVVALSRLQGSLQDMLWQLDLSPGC

With “Recombinant Human Leptin R Fc Chimera, Catalog Number 389-LR/CF, R & D Systems (amino acid sequence Thr20-Asp839 of the human leptin receptor) (from UniProt P48357 20-839) (Fc fusion)” the quotient of functional leptin and total leptin [1] was 1.14, the quotient of functional leptin and total leptin [2] was 0.99 and the quotient of functional leptin and total leptin [3] was 0.98. It also gave a measured value functional leptin (concentration read from standard curve) [4] of 278 µg/mL, a quotient of functional leptin and total leptin [5] of 0.87 and a measured value functional leptin (concentration read from standard curve) [6] of 2.81 ng/mL. It also gave a measured value functional leptin (concentration read from standard curve) [7] of 4.61 ng/mL, a quotient of functional leptin and total leptin [8] of 0.91 and a quotient of functional leptin and total leptin [9] of 0.96. The measured value functional leptin (concentration read from standard curve) [10] was 6.05 ng/mL, the measured value functional leptin (concentration read from standard curve) [11] was 490 ng/mL and the measured value functional leptin (concentration read from standard curve) [12] was 1.83 ng/mL. It also gave a measured value functional leptin (concentration read from standard curve) [13] of 24 ng/mL, a quotient of functional leptin and total leptin [14] of 0.99 and a measured value functional leptin (concentration read from standard curve) [15] of 34.1 ng/mL. For the same substance, the measured value functional leptin (concentration read from standard curve) [16] was 7.25 ng/mL and the quotient of functional leptin and total leptin [17] was 0.85.
